In the supplement of paper PMC9112550, “Optimization of the antimicrobial peptide Bac7 by deep mutational scanning” (BMC Biology, 2022):

Test system: Escherichia coli TOP10
Assay: shrunken log2 fold change of peptide-encoding DNA abundance (4.5 h post-induction vs induction); higher = less antimicrobial activity (less host growth inhibition)
Conditions: time post-induction: 4.5 h; library: site-saturation at positions 5, 18, 19, 20
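Also: peptides expressed intracellularly from a pBAD plasmid library in pooled LB shake-flask culture, induced with 0.3% L-arabinose, DNA abundance read by NGS, three biological replicates, DESeq2 with apeglm shrinkage.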

Sequence | shrunken log2 fold change
RRIRARPPRLPRPRPRPAATPRP | 0.914
RRIRARPPRLPRPRPRPADFPRP | 0.119
RRIRARPPRLPRPRPRPAEAPRP | 0.161
RRIRARPPRLPRPRPRPAEMPRP | -0.0298
RRIRARPPRLPRPRPRPAFDPRP | 1
RRIRARPPRLPRPRPRPAGCPRP | 0.648
RRIRARPPRLPRPRPRPAGMPRP | 0.432
RRIRARPPRLPRPRPRPAHCPRP | 0.433
RRIRARPPRLPRPRPRPALSPRP | 0.628
RRIRARPPRLPRPRPRPAMNPRP | 0.121
RRIRARPPRLPRPRPRPAQVPRP | 0.617
RRIRARPPRLPRPRPRPASTPRP | 0.318
RRIRARPPRLPRPRPRPATAPRP | 0.452
RRIRARPPRLPRPRPRPATCPRP | 0.03
RRIRARPPRLPRPRPRPAVIPRP | -0.178
RRIRARPPRLPRPRPRPAWQPRP | 0.626
RRIRARPPRLPRPRPRPAYDPRP | 0.00165
RRIRARPPRLPRPRPRPAYEPRP | 0.0749
RRIRARPPRLPRPRPRPCAHPRP | -0.0288
RRIRARPPRLPRPRPRPCAIPRP | -0.00341
RRIRARPPRLPRPRPRPCCTPRP | 0.485
RRIRARPPRLPRPRPRPCDSPRP | 0.0469
RRIRARPPRLPRPRPRPCEIPRP | 0.196
RRIRARPPRLPRPRPRPCFDPRP | 0.191
RRIRARPPRLPRPRPRPCFEPRP | 0.438
RRIRARPPRLPRPRPRPCGPPRP | 0.0702
RRIRARPPRLPRPRPRPCHGPRP | -0.214

Sequence | shrunken log2 fold change
RRIRARPPRLPRPRPRPCHTPRP | 0.0762
RRIRARPPRLPRPRPRPCIQPRP | 0.151
RRIRARPPRLPRPRPRPCIWPRP | 0.118
RRIRARPPRLPRPRPRPCKAPRP | 0.125
RRIRARPPRLPRPRPRPCKGPRP | -0.0784
RRIRARPPRLPRPRPRPCKQPRP | -0.0572
RRIRARPPRLPRPRPRPCMAPRP | 0.104
RRIRARPPRLPRPRPRPCMHPRP | -0.226
RRIRARPPRLPRPRPRPCMNPRP | -0.0756
RRIRARPPRLPRPRPRPCMSPRP | 0.19
RRIRARPPRLPRPRPRPCNDPRP | -0.0678
RRIRARPPRLPRPRPRPCNWPRP | -0.0619
RRIRARPPRLPRPRPRPCQCPRP | 0.0726
RRIRARPPRLPRPRPRPCQPPRP | -0.0379
RRIRARPPRLPRPRPRPCRKPRP | -0.232
RRIRARPPRLPRPRPRPCSGPRP | 0.0771
RRIRARPPRLPRPRPRPCTKPRP | 0.143
RRIRARPPRLPRPRPRPCWIPRP | -0.197
RRIRARPPRLPRPRPRPCWSPRP | -0.142
RRIRARPPRLPRPRPRPCWWPRP | 0.157
RRIRARPPRLPRPRPRPDACPRP | 0.955
RRIRARPPRLPRPRPRPDADPRP | 1.63
RRIRARPPRLPRPRPRPDANPRP | 0.275
RRIRARPPRLPRPRPRPDARPRP | 0.355
RRIRARPPRLPRPRPRPDATPRP | 1.6
RRIRARPPRLPRPRPRPDCKPRP | -0.129
RRIRARPPRLPRPRPRPDCLPRP | 0.948
